# Laboratory results as given in patent US11479582B2 (KING FAISAL UNIVERSITY, dated 2022).
# Target: SARS-CoV-2 spike (S) protein, expressed from a synthetic S gene (SARS-CoV-2, UniProt P0DTC2)
# Experiment: cell-based or functional assay
binder,measurement,value
"HVLGDISGINASVVQIQKEIDRLNEVAKNLHESLIYLQE [peptide #121 (mutated HR2 39-mer, 'Highest Affinity')]","IC50, SARS-CoV-2 Spike-mediated cell-cell fusion",720 nM
same,"IC50, SARS-CoV-2 pseudovirus infection in Calu-3 cells",160 nM
same,"IC50, SARS-CoV-2 pseudovirus infection in VeroE6",> 10000 nM
same,"IC50, TMPRSS2-dependent plasma membrane pathway in VeroE6-TMPRSS2",< 1000 nM
